Experiment [1] relates to HBV. The experiment can be described thus: HBV attachment, uptake and replication in Huh7-LIPG cells. The experiment is classed as cell-based. The settings on record: Huh7-LIPG cells infected with HBV, 3 days after treatment. As for the experimental part:
(§1) HBV-DNA and cccDNA were quantified by qPCR as described below. Total DNA was extracted from cells using DNeasy Blood & Tissue Kit (Qiagen, Hilden, Germany). HBV-DNA was quantified by qPCR analysis as previously reported (Honda. M. et al., J. Infect. Dis., 213, 1096-1106, 2016). The extracted DNA (50 ng) was treated with 10 U of Plasmid safe DNase I (Epicentre, Madison. WI) at 37° C. for 60 minutes and then treated at 70° C. for 30 minutes for DNase inactivation, cccDNA was quantified by qPCR analysis as previously reported (Honda, M. et al., J. Infect. Dis. 213, 1096-1106, 2016). Quantitative RT-PCR was performed as described below. The GenElute™ Mammalian Total RNA Miniprep Kit (Sigma-Aldrich) was used for extraction of total RNA, and the High Capacity cDNA Reverse Transcription Kit (Applied Biosystems, Carlsbad, CA) was used for cDNA synthesis. The 7500 Real Time PCR System (Applied Biosystems) was used for RT-PCR. Primers 5′-[…]-3′ (SEQ ID NO: 31) and 5′-[…]-3′ (SEQ ID NO: 32) and a probe 5′-FAM-[…]-MGB-3′ (SEQ ID NO: 33) were used for pregenomic RNA. Primer pairs and probes for LIPG, NTCP. 18SrRNA, and ACTB were obtained from the TaqMan assay reagents library.
When the abundance of LIPG expression was compared among different liver cell lines. […] HepG2-NTCP-C4 cells with overexpression of FLAG-LIPG (HepG2-NTCP-C4-LIPG cells) were established (FIG. 2B), and the attachment and uptake of HBV into cells were assayed in the resulting cells. Heparin, which has been reported to inhibit HBV attachment (Schulze. A. et al., Hepatology 46: 1759-1768, 2007), and heparanase, an endo-β-D-glucuronidase that cleaves the heparan sulfate side chain in heparan sulfate proteoglycans (HSPGs) (Bame, KJ. Glycobiology,11: 91R-98R,2001), were used as control compounds. […] HBV attachment was detected by qPCR of HBV-DNA at 3 hours after HBV inoculation at 4° C. in the presence or absence of the compound (heparin or heparanase). […]

Experiment [2] relates to HBV. Put plainly: Anti-HBV activities of LIPG-binding peptides in PXB cells. The experiment is classed as cell-based. Particulars: for anti-HBV activity (effect to reduce HBV DNA and cccDNA copy numbers): HBV-infected PXB cells. As for the experimental part:
(§2) An infection source medium was prepared by adding the HBV-infected chimeric mouse serum (PhoenixBio), DMSO, and a PEG 8000 solution to the PXB cell culture medium (PhoenixBio) at final concentrations of 5 genome equivalents/cell, 2%, and 4%, respectively. Various synthesized peptides were diluted to different concentrations in this medium, and the resulting media were added individually to PXB cells (PhoenixBio). After the cells were left to stand in a 5% CO2 incubator at 37° C. for 20 to 28 hours, the medium was removed and the wells were washed once with PBS(−). DMSO and one of the various synthesized peptides were added to the PXB cell culture medium at a final concentration of 2% and different concentrations, respectively, and the resulting media were added individually to the PXB cells to perform medium exchange. This medium exchange was performed at 1, 5, and 9 days post infection and samples were collected at 14 days post infection.
(§3) SMI TEST™ M EX-R&D (Medical & Biological Laboratories) was used to extract DNA from the samples. The extracted DNA was used as a template for quantitative PCR of HBV-DNA. For cccDNA detection, the extracted DNA was treated with T5 exonuclease (New England Biolabs), and the resulting DNA was used as a template for quantitative PCR. The T5 exonuclease treatment was performed at 37° C. for 30 minutes, and the DNase was later inactivated by heating at 80° C. for 15 minutes. The following primer set was used for detection.
PXB cells, fresh human liver cells isolated from PXB mice (human hepatocyte chimeric mice), are human liver cells that maintain human liver functions at high levels and allow persistent infection with hepatitis B virus (HBV). Therefore, PXB cells were used to evaluate the anti-HBV activities of LIPG-binding peptides. LIPG-binding peptides were chemically synthesized because they were added extracellularly (Eurofins Genomics K.K.). Clones that had shown excellent results in the studies of Examples 10 and 1 (KIgk-LIPH4-23, KIgk-LIPH4-74, KIgk-LIPH4-15, KIgk-L1l 14-2. KIgk-LIPH14-14. KIgk-LIPH4-87) were selected for chemical synthesis of the peptides. […] Therefore, LIPH4-NTNA and LIPH4-NTNB, which share a common sequence with netrins and consist of 16 amino acids, were also chemically synthesized. The chemically synthesized peptides were dissolved in DMSO for use in HBV assays in PXB cells.
Next, the anti-HBV activity of full-length Netrin-1 was examined in PXB cells. A full-length human recombinant Netrin-1 protein consisting of 604 amino acid residues (molecular weight: 67.5 kDa, SEQ ID NO: 28) was purchased from R&D Systems. United States. A shRNA with the sequence […]ctcgagc[…] TTTTTTG (single underline: terminal sequences for cloning, lowercase letters: hairpin loop sequence) (SEQ ID NO: 64) was used to knock down the Netrin-1 gene.

The target in experiment [3] is T1, binding between preS1 and heparan sulfate enhanced by LIPG (Homo sapiens, UniProt Q9Y5X9).
T1 construct: FLAG
T1 sequence (Q9Y5X9 21-500): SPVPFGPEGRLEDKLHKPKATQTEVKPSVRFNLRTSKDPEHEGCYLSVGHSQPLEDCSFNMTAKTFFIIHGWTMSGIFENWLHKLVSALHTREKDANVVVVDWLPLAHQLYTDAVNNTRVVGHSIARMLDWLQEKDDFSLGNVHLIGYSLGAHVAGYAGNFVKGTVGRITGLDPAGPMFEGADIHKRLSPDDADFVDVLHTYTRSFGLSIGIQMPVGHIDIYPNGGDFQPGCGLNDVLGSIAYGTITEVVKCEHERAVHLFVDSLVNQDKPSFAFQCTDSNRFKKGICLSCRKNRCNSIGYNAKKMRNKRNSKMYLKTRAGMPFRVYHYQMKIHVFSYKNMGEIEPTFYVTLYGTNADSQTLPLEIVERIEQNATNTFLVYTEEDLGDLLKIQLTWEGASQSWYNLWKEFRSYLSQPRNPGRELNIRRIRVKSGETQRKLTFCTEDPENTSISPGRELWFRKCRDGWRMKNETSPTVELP
The experiment can be described thus: Plate assay of binding between preS1 peptide and immobilized heparan sulfate with FLAG-LIPG. The settings on record: 10 or 100 nmol of peptide per well, concentration-dependent. As for the experimental part: FIG. 22-2 The effect of LIPG to promote HBV entry into cells and the effect of a LIPG-binding peptide and Netrin-1 to inhibit HBV entry into cells. E: A biotin-labeled form of heparan sulfate was added to a streptavidin-coated 96 well plate and left overnight at 4° C. to allow the heparan sulfate to bind to the plate. This plate was washed with TBS, and 10, 25, or 50 fmol of FLAG-LIPG was then added to each well to allow the reaction to proceed at room temperature for 2 hours. After the plate was washed, 10 or 100 nmol of LIPG-binding peptide LIPH4-NTNBS, LIPH4-23S, LIPH4-NTNBSA, or LIPH4-23SA was added to each well to allow the treatment to proceed at room temperature for 1 hour. Subsequently, the plate was washed, and 0.1 nmol of preS1-TMR was added to each well to allow the treatment to proceed at room temperature for another 1 hour. The plate was washed and then placed in a plate reader to measure the fluorescence of TMR.
Furthermore, PXB cells treated with Netrin-1 were further treated with FLAG-LIPG, and the uptake of the preS1 peptide was examined, to find that the enhancement of the uptake of the preS1 peptide by FLAG-LIPG was suppressed by Netrin-1 (FIG. 22D). In addition, a biotin-labeled heparan sulfate was immobilized on a streptavidin-coated plate and the preS1 peptide was added thereto to study the binding between the preS1 region of HBV and heparan sulfate present on the cell surface.

For experiment [4], the system named is HBV. The experiment can be described thus: HBV attachment and uptake assay in HepG2-NTCP-C4-LIPG cells. The experiment is classed as cell-based. Particulars: pretreated 1 hour. As for the experimental part: as §1
When the abundance of LIPG expression was compared among different liver cell lines. […] HepG2-NTCP-C4 cells with overexpression of FLAG-LIPG (HepG2-NTCP-C4-LIPG cells) were established (FIG. 2B), and the attachment and uptake of HBV into cells were assayed in the resulting cells. Heparin, which has been reported to inhibit HBV attachment (Schulze. A. et al., Hepatology 46: 1759-1768, 2007), and heparanase, an endo-β-D-glucuronidase that cleaves the heparan sulfate side chain in heparan sulfate proteoglycans (HSPGs) (Bame, KJ. Glycobiology,11: 91R-98R,2001), were used as control compounds. Cells (HepG2-NTCP-C4-LIPG cells and HepG2-NTCP-C4 control cells) were pretreated with these compounds for 1 hour and then with HBV at 4° C. for 3 hours to allow HBV to attach the cells, washed to wash out HBV, and further incubated at 37° C. for 12 hours to detect uptake of HBV (FIG. 2C). In addition, the cells were further cultured in a conventional culture medium for 3 days after HBV inoculation to detect HBV DNA and cccDNA in the cells (FIG. 2C). HBV attachment was detected by qPCR of HBV-DNA at 3 hours after HBV inoculation at 4° C. in the presence or absence of the compound (heparin or heparanase). HBV attachment (FIG. 2D), uptake (FIG. 2E), and replication of HBV DNA and cccDNA (FIGS. 2F and 2G) were all increased in the HepG2-NTCP-C4-LIPG cells compared to the HepG2-NTCP-C4 control cells.
Next, the effect of a LIPG inhibitor (GSK-264220A) on HBV attachment and uptake was examined. […] At the same time, this inhibitor had no effect on HepG2-NTCP-C4 control cells.

The test system of experiment [5] is HBV. The experiment can be described thus: Anti-HBV activities of LIPG-binding peptides delivered into PXB cells-1 (scFv fusions). The settings on record: for HBV-DNA copy number: peptide concentrations (nM) indicated in FIG. 41B; for cccDNA copy number: peptide concentrations (nM) indicated in FIG. 41C. The experiment is classed as cell-based. As for the experimental part:
as §2, §3
The anti-HBV activities of LIPG-binding peptides delivered into cells were evaluated using PXB cells and anti-ASGR single-chain antibody-LIPG-binding peptide fusions. Of the fusions prepared in Example 16, 10M-L23N, 10M-L23SN. 10M-L23SN-S39, and 10M-LNTSN were used. According to the timeline shown in FIG. 41A, the anti-HBV activities of the fusions were evaluated using the methods described in “(10-5) Infection experiment using PXB cells” and “(10-6) Quantification of HBV-DNA and cccDNA”.

`CCN(c1nc(N)c(C(=O)N=C(N)N)nc1Cl)C(C)C` [5-(N-ethyl-N-isopropyl)amiloride]: in the experiment with HBV [1], the “LIPG-mediated increase in HBV replication (cccDNA)” value is “no effect”. Take `CN(C)CCCN1c2ccccc2Sc2ccc(Cl)cc21` [chlorpromazine]: in the experiment with HBV [1], the “LIPG-mediated increase in HBV replication (cccDNA)” value was “no effect”. LNARDNTR (LIPH4-23SA): the “anti-HBV activity (effect to reduce HBV DNA and cccDNA copy numbers)” value in the experiment on HBV [2] is “as strongly as the original polypeptides”. For the same molecule, in experiment [3], the “LIPG-mediated enhancement of binding between preS1 and heparan sulfate” value is recorded as “inhibited”. Turning to NARHNTAG (LIPH4-NTNBsA), in the experiment with HBV [2], the “anti-HBV activity (effect to reduce HBV DNA and cccDNA copy numbers)” value was “as strongly as the original polypeptides”. In the experiment with HBV [2] (PXB cells, each concentration), the “activity in terms of copy number of HBV-DNA relative to LIPH4-NTNBs” value was “equal to or greater than that of LIPH4-NTNBs” and the “activity in terms of copy number of cccDNA relative to LIPH4-NTNBs” value is reported as “equal to or greater than that of LIPH4-NTNBs”. For the same molecule, the “LIPG-mediated enhancement of binding between preS1 and heparan sulfate” value in experiment [3] was “inhibited”.

In the case of heparanase, in the experiment on HBV [4], the “increase in HBV attachment, uptake, and replication of HBV DNA and cccDNA in LIPG-overexpressing cells” value is “reduced this increase to the same level as the control”. As for heparin, the “increase in HBV attachment, uptake, and replication of HBV DNA and cccDNA in LIPG-overexpressing cells” value in the experiment on HBV [4] is recorded as “reduced this increase to the same level as the control”.

B1: 10M-L23SN: fusion of ASGR3-10M scFv, cleavage sequence, LIPH4-23s, S28, nuclear localization signal (SEQ ID NO: 128) (protein)
chain: RVRRLNCRDNTRDYKDDDDKHHHHHHHPFVIGAGVLGALGTGIGGITTSTQFYYKPAAKRVKLD
modifications: cleavage sequence + LIPH4-23S + Flag-tag + His-tag + S28 + nuclear localization signal
B1: in the experiment on HBV [5], the HBV-DNA copy number result is reported as “remarkably reduced” and the cccDNA copy number result is on record as “remarkably reduced”.

B2: 10M-L23N: fusion of anti-ASGR scFv ASGR3-10M, cleavage sequence, LIPH4-23, S28, nuclear localization signal (SEQ ID NO: 127) (protein)
chain: RVRRLNCRDNTRPVMSAMTCDYKDDDDKHHHHHHHPFVIGAGVLGALGTGIGGITTSTQFYYKPAAKRVKLD
modifications: cleavage sequence + LIPH4-23 + Flag-tag + His-tag + S28 + nuclear localization signal
In the case of B2, in the experiment with HBV [5], the HBV-DNA copy number result is reported as “remarkably reduced” and the cccDNA copy number entry is “remarkably reduced”.

B3: 10M-L23SN-S39: fusion of ASGR3-10M scFv, cleavage sequence, LIPH4-23s, S39, nuclear localization signal (SEQ ID NO: 129) (protein)
chain: RVRRLNCRDNTRDYKDDDDKHHHHHHHPFVIGAGVLGALGTGIGGITTSTQFYYKLSQELNGDMERPAAKRVKLD
modifications: cleavage sequence + LIPH4-23S + Flag-tag + His-tag + S39 + nuclear localization signal
Consider B3, for which the “HBV-DNA and cccDNA copy numbers” value in the experiment with HBV [5] (added concentrations 2.5 to 25 nM) is reported as “remarkably reduced”. In the experiment with HBV [5], the HBV-DNA copy number result is listed as “remarkably reduced” and the cccDNA copy number result is given as “remarkably reduced”.

For the origin of these results see patent US20240277861A1, “ANTI-HEPATITIS B VIRUS AGENT TARGETING HOST FACTOR LIPG” (PUROTECH BIO, INC., priority 2021, published 2024).
